Experimental data: patent publication US20120171123A1, “USES AND COMPOSITIONS FOR TREATMENT OF RHEUMATOID ARTHRITIS” (priority 2006, published 2012)

Tests used:
[1] = test system: MTX-naïve adult patients with active, early RA (<3 years); conditions: in vivo
Description: Study J was a 2-year randomized controlled trial in patients with early RA (disease duration<3 years). Participants in these clinical trials and in other phase Mb studies, were routinely evaluated for safety. Reports of serious adverse events (SAE) were tabulated using MedDRA coding by events per 100-patient-years (E/100PY). SAE rates were compared with respect to disease duration between patients with early (<3 yrs) and long-standing RA.

patients with RA = assay: RAPID (routine Apgar-like patient index datasheet) score in 4 adalimumab clinical trials; assay type: in vivo, human; conditions: for RAPID (R326), Difference: baseline vs endpoint
Experimental: All 1,391 patients in these trials were evaluated in this study. The RAPID index is based on patient self-report data on a Health Assessment Questionnaire (HAQ), recalibrated to 0-10, based on the following criteria: physical function (0-3): 0=0-0.25, 1=0.26-0.75, 2=0.76-1.5, and 3=1.51-3.0; pain visual analog scale (VAS) (0-3): 0=0-10, 1=11-30, 2=31-60, and 3=61-100; and patient's global status VAS (0-4): 0=0-10, 1=11-25, 2=26-50, 3=51-75, and 4=76-100. All patients were classified at baseline as having a DAS28<5.1 or ≧5.1 or RAPID <5.0 or ≧5.0, the higher values for each indicating severe disease. DAS28 was calculated using swollen joint count, tender joint count, patient's global assessment of disease activity and C-reactive protein (CRP) concentration. Spearman rank correlations and box plots to compare RAPID scores with DAS28 were also analyzed.
Several rescalings of the physical function, pain, and patient's global assessment scales were calculated. The physical function scale is scored 0-3, and was rescaled to 0-3. The pain visual analog scale (VAS) is scored 0-10 and was also rescaled to 0-3. The global VAS is scored 0-10 and was rescaled to 0-4. Thus, the total of the 3 scores ranges from 0-10. Scores were calculated for both continuous and categorical indices. The DAS28 was calculated from the SJC, TJC, patient's global score, and C-reactive protein.

[2] = test system: patients with moderate to severe rheumatoid arthritis; assay: Study C: medically relevant adverse events; assay type: in vivo, human
Experimental: The Canadian Adalimumab Clinical Trial (Study C) was an open-label, multi-center, Phase IIIb study conducted in Canada. […] Efficacy and safety were assessed at baseline, 4, 8, and 12 weeks. Efficacy assessments included tender joint count (TJC 0-28), swollen joint count (SJC 0-28), Disease Activity Score 28 (DAS28), Health Assessment Questionnaire (HAQ), and EULAR response. […] The sample size for each outcome variable is based on the data available at the time of the analysis. The data from this preliminary analysis were compared with the Week 12 data from Study A (N=2008).

[3] = test system: patients with severe RA who had failed at least one DMARD; assay: Study 2 / Study 3 OLE (adalimumab 40 mg eow monotherapy): HUI3 health utility; assay type: in vivo, human; conditions: for mean HUI3 change from baseline: week 26 (6 months), monotherapy
Experimental: In addition to the SF-36 instrument, the Health Utilities Index Mark 3 (HUI3) and the Functional Assessment of Chronic Illness Therapy-Fatigue (FACIT-F) questionnaires were administered at baseline, 12 weeks, and the end of the study.
The HUI3 scale is 0-1, with “1” denoting perfect health and “0” denoting death. FACIT-F scores range from 0-52, with higher scores representing less fatigue. The SF-36 includes one multi-item scale that assesses eight different dimensions of health, including physical and psychosocial components. For each dimension a value of 0-100 is given, with higher numbers representing less impairment. Changes in HUI3 of ≧0.03, in FACIT-F of ≧4 and in SF-36 of ≧4.4 (physical subscales) and ≧3.1 (mental subscales) are considered clinically meaningful.
The HUI3 was assessed at baseline, and at several time points during the study. Health Utility Index 3 (scale=0-1) measures preference of a health state, with “1” denoting perfect health and “0” denoting death. HUI3 changes of ≧0.03 are considered clinically important. The HUI3 classification system consists of 8 attributes and 5 or 6 levels on each attribute, ranging from full function to severe impairment.
Inclusion criteria for this study included: all patients had severe active disease; and all patients had failed prior DMARD(s).
The Health Utilities Index Mark 3 (HUI3) was assessed at three time points. HUI 3 consists of 8 attributes: vision, hearing, speech, ambulation, dexterity, emotion, cognition, and pain. HUI3 score changes of ≧0.03 are considered clinically important. […] As can also be seen in this figure, the Study 2 study population started with baseline values reflecting a patient population with a more severe disease activity than in Study I, as documented by TJC, SJC, HAQ, CRP, and number of previous DMARDs.
In addition to clinical parameters, the SF-36 instrument, the Health Utilities Index Mark 3 (HUI3), and the Functional Assessment of Chronic Illness Therapy-Fatigue (FACIT-F) questionnaires were administered at baseline, and at weeks 12, 26, 50, 74, 98, 122, 146 and 170, respectively. The HUI3 scale ranges from 0-1, with “1” denoting perfect health and “0” denoting death. FACIT-F scores range from 0-52, with higher scores representing less fatigue. SF-36 scores range from 0-100 with higher scores indicating improvement in HRQoL. Changes in HUI3 scores of ≧0.03, 1 FACIT-F scores of ≧4, 2 and individual SF-36 domain scores of 5-103 are considered clinically meaningful.

[4] = test system: MTX-naïve adult patients with active, early RA (<3 years); conditions: human, in vivo
[5] = Study 2 (adalimumab monotherapy)
[6] = Study K (adalimumab with other DMARDs)

Q: Which results are given for “adalimumab: human anti-TNF mAb (HUMIRA, Abbott Laboratories), described in U.S. Pat. No. 6,090,382 as D2E7”?
A: All infectious AE [1]: 110 Events/100-PY; Demyelination [1]: 0.0 Events/100-PY; Lymphoma [1]: 0.0 Events/100-PY; Malignancies [1]: 0.9 Events/100-PY; Pancytopenia [1]: 0.0 Events/100-PY; Serious AE [1]: 21.1 Events/100-PY; Serious Infectious AE [1]: 0.7 Events/100-PY; RAPID (R326), Endpoint (patients with RA; Study 1 (adalimumab with MTX)): 3.86; RAPID (R326), Difference (patients with RA; Study 1 (adalimumab with MTX)): 3.22; RAPID (R326), Endpoint (patients with RA; [5]): 5.88; RAPID (R326), Difference (patients with RA; [5]): 2.70; RAPID (R326), Endpoint (patients with RA; Study I (adalimumab with MTX)): 3.84; RAPID (R326), Difference (patients with RA; Study I (adalimumab with MTX)): 3.43; RAPID (R326), Endpoint (patients with RA; [6]): 4.22; RAPID (R326), Difference (patients with RA; [6]): 2.79; Infections: Influenza, number ([2]; Study C (n=879)): Influenza (1); Infections: Pneumonia, number ([2]; Study C (n=879)): Pneumonia (3); Infections: Post-operative infections, number ([2]; Study C (n=879)): infections (3); Infections: Pyelonephritis, number ([2]; Study C (n=879)): Pyelonephritis (1); Infections: Sinusitis, number ([2]; Study C (n=879)): Sinusitis (1); Medically relevant adverse events: Congestive heart failure, % ([2]; Study C (n=879)): 0.1%; Medically relevant adverse events: Congestive heart failure, number ([2]; Study C (n=879)): 1; Infections: Atypical infection (nodules), number ([2]; in vivo): (nodules) (1); Infections: Infected prosthesis, number ([2]; in vivo): Infected prosthesis (1); Medically relevant adverse events: Infections, % ([2]; in vivo): 1.3%; Medically relevant adverse events: Infections, number ([2]; in vivo): 11; Medically relevant adverse events: Malignancies, % ([2]; in vivo): 0.2%; Medically relevant adverse events: Malignancies, number ([2]; in vivo): 2; patients reaching HUI3 MCID of 0.03 change from baseline ([3]; week 12 through week 170): about 60%; mean HUI3 change from baseline [3]: 0.18 a, b; mean HUI3 change from baseline ([3]; listed as ada): 0.18; mean HUI3 improvement from baseline ([3]; week 50 (1 year)): +0.17; mean HUI3 improvement from baseline ([3]; week 50 (1 year), listed as ada): 0.17; mean HUI3 improvement from baseline ([3]; week 170 (3 years)): +0.19; mean HUI3 improvement from baseline ([3]; week 170 (3 years), listed as ada): 0.19; withdrawn, reason AE [4]: 11%
